Experimental data: paper PMC9765406

Assays:
[1] = target: BfpD, type IV pilus (bundle-forming pilus) extension ATPase from enteropathogenic Escherichia coli (enteropathogenic Escherichia coli (EPEC)); experiment: cryo-EM structure
[2] = target: BfpD, type IV pilus (bundle-forming pilus) extension ATPase from enteropathogenic Escherichia coli (enteropathogenic Escherichia coli (EPEC)); experiment: negative-stain electron microscopy with reference-free 2D averaging

In the case of “BfpD, type IV pilus (bundle-forming pilus) extension ATPase from enteropathogenic Escherichia coli (enzyme)”, the stoichiometry N [1] was 6 and the stoichiometry N [2] was 6.
